Here are results for 1 molecule from PMC8070380 (2021).

The term koff denotes the first-order rate constant of dissociation.

The target in assay [1] is T1, A3Bctd-DM (L230K/F308K), residues 187-378 (human, UniProt Q9UH17 187-378, L230K | F308K). Nature of the assay: SPR; association 120 s, dissociation 300 s. On the technique in general: In SPR one partner is held on a chip, and binding of the other changes the refractive index at the surface.
Assay [2] deals with T1, A3Bctd-DM (L230K/F308K), residues …. Nature of the assay: SPR; association 300 s, dissociation 750 s.

T1 sequence (Q9UH17 187-378 L230K/F308K): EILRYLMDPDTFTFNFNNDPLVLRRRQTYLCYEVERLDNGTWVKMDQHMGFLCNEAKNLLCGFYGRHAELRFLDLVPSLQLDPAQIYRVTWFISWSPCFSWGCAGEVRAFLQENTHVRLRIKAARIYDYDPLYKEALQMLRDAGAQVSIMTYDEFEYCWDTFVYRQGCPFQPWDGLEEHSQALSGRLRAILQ

B1: scFv 5G7 (heavy chain Fv followed by light chain Fv, 16-residue His8 linker) (scFv, V domains shown)
VH: EVQLLESGGDLVKPGGSLKLSCAASGFTFSSYGMSWVRQTPDKRLEWVATISSGGSYTYYPDSVKGRFTISRDNAKNTLYLQMSSLKSEDTAMYYCARGGEGYYFDYWGQGTTLTVSS
VL: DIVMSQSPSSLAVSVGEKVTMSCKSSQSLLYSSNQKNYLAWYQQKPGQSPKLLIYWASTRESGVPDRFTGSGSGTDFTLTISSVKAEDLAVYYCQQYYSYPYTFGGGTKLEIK
As for B1, the koff came out at 0.000779 s⁻¹ in assay [1] and 0.000331 s⁻¹ in assay [2].
